This series is described as follows: soluble on expression in E. coli; label from the status in PepcDB or PDB records.
Consider “MGSDKIHHHHHHMVDFNNTLESAVKSVLKWEEKQIITETTIIRDVQGKVSLFLKSEQKATESDISNLEEILQNDLNGFFTGKIFWEKCDKKDKLRIEIIKSIIEESREEWKTEDGVDFYICERPIAKKAWVNATQDVEPVWQYQEAECSNKAKVVTFYSFKGGMGRTTALAGIALNLIEQNKNVMMIDMDIEAPGLSTLFFDDIVVEKGLLDYLIERPLNEQCDIHDYVLEVTDPALLKENDGNLYLMPAGKVDETYLQKLARIDYQDNRENNLKSSIKNLLEKLDNTYHPDYILIDARAGFHDMGGIAVAQIPHGAVLIGNGSKQSWDGMTQVIRTIAKGNTEEFSIMIVDSMCERATAERAIEQRKKFLNMAYTVCMENYYNEDQVMPGIDAEGVEHQPEYIPYDSELMQGFELFSDGYNDSEIRVQAYRDLLTGSAYKDITKRIQSWFGE”, for which the “soluble on expression in E. coli” value is given as “not soluble”.

Regarding “MRMIPIKIWAADVDVSIGYRAPRAASNTLGIFSYSAEYTLCTLPISNMTSQSVMFKGGLPADCTCPICEQALRDPIKLNCDHHYCRQCFENENRTPGCAACQTIIQPELCQHDRAKQKQILALPVVCTFESSGCPWDGQLGTLHDHLSECTFKSSLKCEKCGRQFAKNDLEKHRAKCELNRAVCSFCNKTIRDSDRERHPKTCPQVIISCPFQCGLTDRPRLEIEAHCPSCPNVDNVCPFVPYGCTFAGGKESIQQHLSDEPVRHLMYLCDEITDLKGTYELMERDMGSFNDRQTRILSAAETCTEMFGPQLIWKIDKLQQRTNEAKSGADTTIFSVPFMSHRFGYKMMACACLFGDGSSAGKSISLYVLLLKGEFDPTLEWPFHRAIKISLLDQNPRPEDRVNITYVIDPRKLKANEKFLARPRGERNAAFGSQSFCSLAILQNYVKDDKIYVQIDVDRCETLPVQLKSRDAKERKQMLDAMRAKTPDVRLHQVRPVTSQSSSAELRV”, the “soluble on expression in E. coli” value is “not soluble”. Then “MGSDKIHHHHHHMNWDDVRIFLAVARAGQILGAARRLELNHATVSRRIAALEDALRTKLFRRLTTGSELTPAGERFLDIAERMEGEMIAARSTISGEGDDISGTVRIGAPDGFGVAFLARRLGELTALHRELTIQLVPVPRSFSLSRREADIAITVERPTEGRLVAGKLVDYSLGLFASRAYADANGLPKTAAELGRHPLIGYVPDLIVSPSLDYAAEFSADWRTSFAISSALGQAEAVRSGAGIGILHTFVARSMPELVAVDAVAPIRRAYWLVYHESVRPLRRIQIVAGFITKAVERERSLFL”, with “not soluble”; and “MSLKKLITANDIREAHARGEQAMSVVLRASIITPEAREVADLLGFTITECDESIPVTASVPASVPADKTESQRIRETIIAQLPEGQFTESLVAQLMEKVMKEKQSLEQGAMQPSFKSVTGKGGIKVIDGSSVKFGRFDGAEPHCVGLTDLVTGDDGSSMAAGFMQWENAFFPWTLNYDEIDMVLEGELHVRHEGQTMIAKAGDVMFIPKGSSIEFGTTSSVKFLYVAWPANWQSLEGGSHHHHHH”, with “soluble”; and “MADFAARLNKLFDTVHPPGRKPHTNAEVAAALIADGHQISKPYISQLRSGQRTNPSDETVAAFARFFKVKPDYFFNDIYAAKIDHDLELLSQLQGYGLRKLSSRAFDLSEESQNLLTTMAEKLRASEGLPEVPPDASR”, with “not soluble”.

Turning to “MGSDKIHHHHHHMNLPLNVAPVAAAPASPIVELRQYTLNPGQRETLIALFDREFIESQEATGMTIIGQFRDLDRPDMFVWLRGFDGMDTRKEALAAFYDGPVWAAHRDAANATMTDSDDVLLLKPAWPSAGFDLSGLQRPVSAEQENSSNENHLGGIVVIRIHHLRSGAETEFASRFAAEAALIMKAHGVRLLAAFASEHAQNSFPRLPVRASENVFLSIARFDSAEAHASQEAALAAAPAWQSFLRAVQLDLTKPTETLRLSPTSRSLVGARFRMPR”, the “soluble on expression in E. coli” value was “not soluble”. Then “MGSRNIVRAVLEEKKTEAITEVDEKGITCVMKFGGSSVASAERMKEVADLILTFPEESPVIVLSAMGKTTNNLLLAGEKAVSCGVSNASEIEELSIIKELHIRTVKELNIDPSVILTYLEELEQLLKGIAMMKELTLRTRDYLVSFGECLSTRIFAAYLNTIGVKARQYDAFEIGFITTDDFTNGDILEATYPAVAKRLYDDWMHDPAVPIVTGFLGKGWKTGAVTTLGRGGSDLTATTIGKALGLKEIQVWKDVDGVLTCDPTIYKRATPVPYLTFDEAAELAYFGAQVLHPQSMRPAREGEIPVRVKNSYNPKAPGTIITKTRDMTKSILTSIVLKRNVTMLDIASTRMLGQVGFLAKVFSIFEELGISVDVVATSEVSISLTLDPSKLWSRELIQQELDHVVEELEKIAVVNLLKGRAIISLIGNVQHSSLILERAFHVLYTKGVNVQMISQGASKVNISFIVNEAEAEGCVQALHKSFFESGDLSELLIQPRLGNGSPVRTLQVEN”, with “soluble”; and “TSSTIFSGVAIYVNGYTDPSAEELRKLMMLHGGQYHVYYSRSKTTHIIATNLPNAKIKELKGEKVIRPEWIVESIKAGRLLSYIPYQLYT”, with “soluble”. As to “MGSDKIHHHHHHMIAIEEIGRITPDNLGLVTVLAGEDLGQYAQMKEKLFQVIGFNKDDLAYSYFDLSEEDYQNAELDLESLPFLSDYKVVIFDQFQDITTDKKTYLDEQAMKRFEAYLQNPVDTTRLVICAPGKLDGKRRLVKLLKRDARVLEANTLKESDLKTYFQKYAHQEGLVFEAGVFDELLIKSNYDFSDTLTNIAFLKSYKTDGHISSNDVREAIPKSLQDNIFDLTQDVLLGRIDLARDLVRDLRLQGEDEIKLIAIMLGQFRMFLQVKILASKGKSESQIVSELSHYIGRKINPYQVKFAVRDSRNLPLAFLKEAIRILIETDYAIKRGTYDKDYLFDLALLKIAHKKP”, the “soluble on expression in E. coli” value is listed as “not soluble”. Then “MSLLRFSAVSRHHRGASIDPMTFSEATTPDALTPDAHTPRLLTCDVLYTGMGGAQSPGGVVVVGETVAAAGHPDELRRQYPHAAEERAGAVIAPPPVNAHTHLDMSAYEFQALPYFQWIPEVVIRGRHLRGVAAAQAGADTLTRLGAGGVGDIVWAPEVMDALLAREDLSGTLYFEVLNPFPDKADEVFAAARTHLERWRRLERPGLRLGLSPHTPFTVSHRLMRLLSDYAAGEGLPLQIHVAEHPTELEMFRTGGGPLWDNRMPALYPHTLAEVIGREPGPDLTPVRYLDELGVLAARPTLVHMVNVTPDDIARVARAGCAVVTCPRSNHHLECGTFDWPAFAAAGVEVALGTDSVASGETLNVREEVTFARQLYPGLDPRVLVRAAVKGGQRVVGGRTPFLRRGETWQEGFRWELSRDLEGHHHHHH”, with “soluble”; and “MSLLRLHDGDLLFVTAARTGLSGAIDDATATQGAPSFDHVGLVAHDGRARVVLHADEEGSRQQPLADFIRQARAKQRQIFVYRLNAAQRAAIPDAIAQARRMLGKPYNLTYVQDDNSYYCSDFIERAFRAHQVFALQPMNFKNPQSGQMSAYWTEFYRSKGMDVPQGLPGTNPNDMARAPALQALGPLDEGHHHHHH”, with “soluble”. As to “MGSDKIHHHHHHMSSSSVLAESCNGSQKKRVFVVGATGYIGKFVVRELVSRGYEVISFARPRSGVNASTTEDETRRQLQGSEVRFGDVSNLESLLRDGIRGEHFDAVVSCLASRNGGIKDSWDIDYQATRNSLDAGMKAGINHFVLLSAICVQKPMLEFQRAKLKFEKELRESGVTYSIVRPTAFFKSIAGQIEKVKNGKPYVMFGDGKLTACKPISEGDLARFITDCLEDPEKQNKILPIGGPGEPVTNLDQALMLFELLGRKPKLKKVPIQIFDVIIPLLTLISKFLPSFAEKAEFARIGKYYCSESMLVWDPVKKRYDADATPSYGTETLRDFYKRVLKEGLAGQELGAHAMF”, the “soluble on expression in E. coli” value is listed as “not soluble”. Then “FTEYGAEYKIEVGILKDVVTLTLDTSGEGLHKRGYRENSGGAPIKETLAAAMVLLSDWNPDIELADPMCGSGTIAIEAALIGKNIAPGLKRRFVSEEWDIIPKDLWSDLRKHARNSINDKEFNILCSDIDGWVIKTARANAKKAGVDKYISFQKLPMQDFSSKRKGGFIITNPPYGERLGEVKEVEKLYKDMGRVFKALDKWSYFIITAHEKFEDCFGRKSNKNRKLYNGKLKCYYYQYFGDRK”, with “not soluble”. Then “MGSDKIHHHHHHMPTLKEKIIQESQRLGIDKIGFTHAEPFIELEDSLHEQRERGYNSGFEHQNVEERIYPEKTFEHPKSIISIALAYPTKAQEKMPRDEKRGQFARASWGIDYHHILQDRLQKLIAFIEEQAATEAEKEHWRFRPQVDTGEYVDTAVAQRAGLGFIGKNGLLITEEFGSFVYLGEVTTNIQFEPDEPVPNGCGDCTRCITGCPTGALLGDGRMNAQKCLSYQTQTKGMMPEDYRKKMRNVIYGCDICQLVCPYNKGKDFHFHEEMEPKIEEVYPKLAPLLTISNKEFKQQFGHLAGSWRGKKPLQRNALIALANLGGREAIPQIILCLNDQRPVIRGTAAWSLGQLAKREPEQSLEALNYLLSVETEEEVIEEAQKAIHLLTSKKGSRSTE”, with “not soluble”; and “MDLFPVLKELAQKTPSKILLIVLDGVGGLPLEPGGPTELEAAKTPNLDRLAEESALGLLTPVYPGLAPGSGPGHLALFGYDPFRYVVGRGALSALGLGADFREGDVALRGNFATLDPEGKVVDRRAGRPPTEENQRVIAKLKEAIPRIEDVEVLFYTESEHRFLVILRGEGLEDKVTDTDPQKTGLPPLKAKALDEASERTARLVNLLSERIREVLKDEPRMNGALFRGASKKPSFPRMQEVYKLTPAAIASYPMYKGLASLVGMEVLPVEGEGDALEGKLKALKENWGRYDFFYFHVKKTDAMGEDGNFHGKVEKVELFDALLPEILALGPDVLAITGDHSTPALLKAHSWHPVPLLLKAPYLRADEARRFTEREAQRGSLGHLRGVELMPLLLAHAGKLLKYGA”, with “soluble”.

In the case of “MIAYRSNQGVTRQRQQTKVFKLVSTYDKVAVKNAIRAAYRQVFERDLEPYIINSEFTALESKLSNNEINVKEFIEGLGTSELYMKEFYAPYPNTKVIEMGTKHFLGRAPLNQKEIQQYNQILASQGLKAFIGAMVNGMEYLQTFGEDTVPYRRFPTLPALEHHHHHH”, the “soluble on expression in E. coli” value is reported as “not soluble”. For “MAHHHHHHMLNCFFGAELKPDGVPISFTIPKGTTLVITQCAVTSVVPPQQSTDAGASSSPAVVAKAYNPVTLCVQGHGLPTRFAVCSLSPAQHITYCPLQLLFSKPVSFVLVPQTGSTAAAAAASSSPSPAPHAGKKTGRNQKHSKTTAGAHGAGAEATAVYPTVHLTGYYERAADEDEEDGSMAMDVMESSDDGENDDLSDDE”, the “soluble on expression in E. coli” value is given as “soluble”.

As to “MAHHHHHHSLDSFIMRLLNKPVPGGVAVVDLGEEGPPPRAFYQGKPVLVVREEGRRWIAVVGIPLSTKPGPQKLEVRAATGNHEERFSVGSKHYREQRITLKNKRQVNPLPEDLKRIERELAEQTAAYRRFSPGLPSNLMLDKPVDGPLSSPFGLRRFFNGEERNPHSGLDFAVPAGTPIKAPAAGKVILIGDYFFNGKTVFVDHGQGFISMFCHLSKIDVKLGQQVPRGGVLGKVGATGRATGPHMHWNVSLNDARVDPAIFIGAFQPEG”, the “soluble on expression in E. coli” value is “soluble”.
